From US20180298083A1
Where two headings read alike, the source gives them in different places.

Experiments:
VRC01-resistant viruses [1] = target: VRC01-resistant viruses
VRC01-resistant viruses [2] = experiment: cell-based or functional assay
[3] = target: gp120 of X2088 (HIV-1 strain X2088.c9)
6631.V3.C10 (HIV-1) [4] = target: 6631.V3.C10 (HIV-1)
VRC01-resistant viruses [5] = target: VRC01-resistant viruses; remark: listed apart in the source
[6] = target: gp120 of X2088 (HIV-1 strain X2088.c9); remark: listed apart in the source
VRC01-resistant viruses [7] = target: VRC01-resistant viruses; remark: listed apart in the source
T250-4 (HIV-1) [8] = target: T250-4 (HIV-1)
[9] = target: gp120 of X2088 (HIV-1 strain X2088.c9); remark: listed apart in the source
6631.V3.C10 (HIV-1) [10] = target: 6631.V3.C10 (HIV-1); remark: listed apart in the source
VRC01-resistant viruses [11] = target: VRC01-resistant viruses; remark: listed apart in the source
6631.V3.C10 (HIV-1) [12] = target: 6631.V3.C10 (HIV-1); remark: listed apart in the source
T250-4 (HIV-1) [13] = target: T250-4 (HIV-1); remark: listed apart in the source
T250-4 (HIV-1) [14] = target: T250-4 (HIV-1); remark: listed apart in the source

Row | Binder | fold decrease in neutralization (IC50 of antibody mutant/IC50 of antibody WT) (VRC01-resistant viruses [2]) | neutralisation median IC50 (VRC01-resistant viruses [5]) | neutralisation IC50 [6] | neutralisation median IC50 (VRC01-resistant viruses [7]) | neutralisation IC50 (6631.V3.C10 (HIV-1) [12]) | other results
1 | VRC01 (antibody, V domains shown) VH: QVQLVQSGGQMKKPGESMRISCRASGYEFIDCTLNWIRLAPGKRPEWMGWLKPRGGAVNYARPLQGRVTMTRDVYSDTAFLELRSLTVDDTAVYFCTRGKNCDYNWDFEHWGRGTPVIVSS VL: EIVLTQSPGTLSLSPGETAIISCRTSQYGSLAWYQQRPGQAPRLVIYSGSTRAAGIPDRFSGSRWGPDYNLTISNLESGDFGVYYCQQYEFFGQGTKVQVDIKR | – | – | – | – | – | neutralisation IC50 (VRC01-resistant viruses [1]): > 50 µg/mL; neutralisation median IC50 (VRC01-resistant viruses [1]): > 50 µg/mL
2 | N6 Y54GHC (antibody, V domains shown) VH: RAHLVQSGTAMKKPGASVRVSCQTSGYTFTAHILFWFRQAPGRGLEWVGWIKPQGGAVNFGGGFRDRVTLTRDVYREIAYMDIRGLKPDDTAVYYCARDRSYGDSSWALDAWGQGTTVVVSA VL: YIHVTQSPSSLSVSIGDRVTINCQTSQGVGSDLHWYQHKPGRAPKLLIHHTSSVEDGVPSRFSGSGFHTSFNLTISDLQADDIATYYCQVLQFFGRGSRLHIK | 32 fold | 0.562 µg/mL | – | – | – | neutralisation IC50 [3]: 0.728 µg/mL; neutralisation IC50 (6631.V3.C10 (HIV-1) [4]): 0.396 µg/mL
3 | N6 GGG60-62ARPHC (antibody, V domains shown) VH: RAHLVQSGTAMKKPGASVRVSCQTSGYTFTAHILFWFRQAPGRGLEWVGWIKPQYGAVNFARPFRDRVTLTRDVYREIAYMDIRGLKPDDTAVYYCARDRSYGDSSWALDAWGQGTTVVVSA VL: YIHVTQSPSSLSVSIGDRVTINCQTSQGVGSDLHWYQHKPGRAPKLLIHHTSSVEDGVPSRFSGSGFHTSFNLTISDLQADDIATYYCQVLQFFGRGSRLHIK | 14 fold | 0.248 µg/mL | – | – | – | neutralisation IC50 [3]: 0.15 µg/mL
4 | N6 VRC27FRH2 (antibody, V domains shown) VH: RAHLVQSGTAMKKPGASVRVSCQTSGYTFTAHILFWFRQAPGRSFEWMGWIKPQYGAVNFGGGFRDRVTLTRDVYREIAYMDIRGLKPDDTAVYYCARDRSYGDSSWALDAWGQGTTVVVSA VL: YIHVTQSPSSLSVSIGDRVTINCQTSQGVGSDLHWYQHKPGRAPKLLIHHTSSVEDGVPSRFSGSGFHTSFNLTISDLQADDIATYYCQVLQFFGRGSRLHIK | – | – | 0.143 µg/mL | 0.195 µg/mL | – | –
5 | VRC27 heavy chain with N6 light chain (antibody, V domains shown) VH: QRLVQSGPQVRKPGSSVRISCETSGYTFNAYILHWFRQAPGRSFEWMGWIKPKFGAVNYAHSFQGRITLTRDIYRETAFLDLTGLRFDDTAVYYCARDRLYDGSSWRLDPWGQGTRVVVSS VL: YIHVTQSPSSLSVSIGDRVTINCQTSQGVGSDLHWYQHKPGRAPKLLIHHTSSVEDGVPSRFSGSGFHTSFNLTISDLQADDIATYYCQVLQFFGRGSRLHIK | – | – | – | – | – | neutralisation IC50 (T250-4 (HIV-1) [8]): 23.1 µg/mL; neutralisation IC50 [9]: > 50 µg/mL; neutralisation IC50 (6631.V3.C10 (HIV-1) [10]): > 50 µg/mL; neutralisation fold change (IC50 original/IC50 combination) (VRC01-resistant viruses [11]): 1 fold; neutralisation median IC50 (VRC01-resistant viruses [11]): > 50 µg/mL
6 | N6 VRC27FRH3 (antibody, V domains shown) VH: RAHLVQSGTAMKKPGASVRVSCQTSGYTFTAHILFWFRQAPGRGLEWVGWIKPQYGAVNFGGGFRDRITLTRDIYRETAFLDLTGLRFDDTAVYYCARDRSYGDSSWALDAWGQGTTVVVSA VL: YIHVTQSPSSLSVSIGDRVTINCQTSQGVGSDLHWYQHKPGRAPKLLIHHTSSVEDGVPSRFSGSGFHTSFNLTISDLQADDIATYYCQVLQFFGRGSRLHIK | – | – | 0.509 µg/mL | 0.525 µg/mL | 0.54 µg/mL | –
7 | N6 VRC27CDRH2 (antibody, V domains shown) VH: RAHLVQSGTAMKKPGASVRVSCQTSGYTFTAHILFWFRQAPGRGLEWVGWIKPKFGAVNYAHSFQGRVTLTRDVYREIAYMDIRGLKPDDTAVYYCARDRSYGDSSWALDAWGQGTTVVVSA VL: YIHVTQSPSSLSVSIGDRVTINCQTSQGVGSDLHWYQHKPGRAPKLLIHHTSSVEDGVPSRFSGSGFHTSFNLTISDLQADDIATYYCQVLQFFGRGSRLHIK | 78 fold | – | – | 1.37 µg/mL | 1.17 µg/mL | neutralisation IC50 (T250-4 (HIV-1) [13]): 1.57 µg/mL
8 | N6 VRC08CDRH3 (antibody, V domains shown) VH: RAHLVQSGTAMKKPGASVRVSCQTSGYTFTAHILFWFRQAPGRGLEWVGWIKPQYGAVNFGGGFRDRVTLTRDVYREIAYMDIRGLKPDDTAVYYCARGRSCCGGRRHCNGADCFNWALDAWGQGTTVVVSA VL: YIHVTQSPSSLSVSIGDRVTINCQTSQGVGSDLHWYQHKPGRAPKLLIHHTSSVEDGVPSRFSGSGFHTSFNLTISDLQADDIATYYCQVLQFFGRGSRLHIK | – | > 50 µg/mL | – | – | – | neutralisation IC50 (T250-4 (HIV-1) [14]): > 50 µg/mL; neutralisation IC50 [3]: 1.4 µg/mL
9 | N6 VRC27CDRH3 (antibody, V domains shown) VH: RAHLVQSGTAMKKPGASVRVSCQTSGYTFTAHILFWFRQAPGRGLEWVGWIKPQYGAVNFGGGFRDRVTLTRDVYREIAYMDIRGLKPDDTAVYYCARDRLYDGSSWRLDPWGQGTTVVVSA VL: YIHVTQSPSSLSVSIGDRVTINCQTSQGVGSDLHWYQHKPGRAPKLLIHHTSSVEDGVPSRFSGSGFHTSFNLTISDLQADDIATYYCQVLQFFGRGSRLHIK | 10 fold | – | – | 0.167 µg/mL | 0.268 µg/mL | –
10 | N6 N17FRH3 (antibody, V domains shown) VH: RAHLVQSGTAMKKPGASVRVSCQTSGYTFTAHILFWFRQAPGRGLEWVGWIKPQYGAVNFGGGFRDRVTLTRDIYRDTAYMDISGLRFDDTAVYYCARDRSYGDSSWALDAWGQGTTVVVSA VL: YIHVTQSPSSLSVSIGDRVTINCQTSQGVGSDLHWYQHKPGRAPKLLIHHTSSVEDGVPSRFSGSGFHTSFNLTISDLQADDIATYYCQVLQFFGRGSRLHIK | – | – | 0.106 µg/mL | 0.18 µg/mL | – | fold decrease in potency (IC50 of antibody mutant/IC50 of antibody WT) (VRC01-resistant viruses [2]): 7 fold; neutralisation fold change (IC50 mutant/IC50 WT) (VRC01-resistant viruses [7]): 10 fold
11 | N6 VRC27FRH1 (antibody, V domains shown) VH: SQRLVQSGPQVRKPGSSVRISCETSGYTFNAHILFWFRQAPGRGLEWVGWIKPQYGAVNFGGGFRDRVTLTRDVYREIAYMDIRGLKPDDTAVYYCARDRSYGDSSWALDAWGQGTTVVVSA VL: YIHVTQSPSSLSVSIGDRVTINCQTSQGVGSDLHWYQHKPGRAPKLLIHHTSSVEDGVPSRFSGSGFHTSFNLTISDLQADDIATYYCQVLQFFGRGSRLHIK | – | – | 0.184 µg/mL | 0.373 µg/mL | 0.561 µg/mL | –
12 | N6 N17FRH1 (antibody, V domains shown) VH: RAHLVQSGTAVKRPGASVRVSCETSGYTFTAHILFWFRQAPGRGLEWVGWIKPQYGAVNFGGGFRDRVTLTRDVYREIAYMDIRGLKPDDTAVYYCARDRSYGDSSWALDAWGQGTTVVVSA VL: YIHVTQSPSSLSVSIGDRVTINCQTSQGVGSDLHWYQHKPGRAPKLLIHHTSSVEDGVPSRFSGSGFHTSFNLTISDLQADDIATYYCQVLQFFGRGSRLHIK | – | – | – | 0.111 µg/mL | – | fold decrease in potency (IC50 of antibody mutant/IC50 of antibody WT) (VRC01-resistant viruses [2]): 5 fold; neutralisation fold change (IC50 mutant/IC50 WT) (VRC01-resistant viruses [7]): 6 fold
13 | N6 VRC07CDRH3 (antibody, V domains shown) VH: RAHLVQSGTAMKKPGASVRVSCQTSGYTFTAHILFWFRQAPGRGLEWVGWIKPQYGAVNFGGGFRDRVTLTRDVYREIAYMDIRGLKPDDTAVYYCARGKYCTARDYYNWALDAWGQGTTVVVSA VL: YIHVTQSPSSLSVSIGDRVTINCQTSQGVGSDLHWYQHKPGRAPKLLIHHTSSVEDGVPSRFSGSGFHTSFNLTISDLQADDIATYYCQVLQFFGRGSRLHIK | – | 48.2 µg/mL | – | – | – | neutralisation IC50 (T250-4 (HIV-1) [14]): > 50 µg/mL; neutralisation IC50 (6631.V3.C10 (HIV-1) [4]): > 50 µg/mL
